Consider nine molecules from US20220340666A1 (published 2022).

Positions count from the first letter of the chain named.

The chains are these.
B1: G9.2-17 Fab (Fab, V domains shown)
VH: EVQLVESGGGLVQPGGSLRLSCAASGFTVSSSSIHWVRQAPGKGLEWVAYISSSSGYTYYADSVKGRFTISADTSKNTAYLQMNSLRAEDTAVYYCARYWSYPSWWPYRGMDYWGQGTLVTVSS
VL: DIQMTQSPSSLSASVGDRVTITCRASQSVSSAVAWYQQKPGKAPKLLIYSASSLYSGVPSRFSGSRSGTDFTLTISSLQPEDFATYYCQQSSTDPITFGQGTKVEIKR
B2: G9.2-3 Fab (Fab, V domains shown)
VH: EVQLVESGGGLVQPGGSLRLSCAASGFTFSSSSIHWVRQAPGKGLEWVASISSSSGSTSYADSVKGRFTISADTSKNTAYLQMNSLRAEDTAVYYCARPAYSYPYYYFHYGAMDYWGQGTLVTVSS
VL: B1 VL with T93S, D94S, P95L
B3: G9.2-15 Fab (Fab, V domains shown)
VH: EVQLVESGGGLVQPGGSLRLSCAASGFTVSSSSIHWVRQAPGKGLEWVASIYSSSGYTSYADSVKGRFTISADTSKNTAYLQMNSLRAEDTAVYYCARNVENYPYWAWPWGYYGAIDYWGQGTLVTVSS
VL: B1 VL with T93W, D94G, P95L
B4: G9.2-1 Fab (Fab, V domains shown)
VH: EVQLVESGGGLVQPGGSLRLSCAASGFTLYSSSIHWVRQAPGKGLEWVASIYSSSGYTYYADSVKGRFTISADTSKNTAYLQMNSLRAEDTAVYYCARTYTWKSSWSYQTGYGLDYWGQGTLVTVSS
VL: DIQMTQSPSSLSASVGDRVTITCRASQSVSSAVAWYQQKPGKAPKLLIYSASSLYSGVPSRFSGSRSGTDFTLTISSLQPEDFATYYCQQYKSKYPFTFGQGTKVEIKR
B5: G9.1-11 Fab (Fab, V domains shown)
VH: EVQLVESGGGLVQPGGSLRLSCAASGFTVYSSSIHWVRQAPGKGLEWVASIYSYYGYTSYADSVKGRFTISADTSKNTAYLQMNSLRAEDTAVYYCARSTEGYDRWGYYSSYWSSGLDYWGQGTLVTVSS
VL: B1 VL with S91T, S92Y, T93W, D94G, P95L
B6: G9.1-6 Fab (Fab, V domains shown)
VH: EVQLVESGGGLVQPGGSLRLSCAASGFTLSSSSIHWVRQAPGKGLEWVASIYSSYGSTSYADSVKGRFTISADTSKNTAYLQMNSLRAEDTAVYYCARSSHWYMYWSYWGWYIGMDYWGQGTLVTVSS
VL: B1 VL with S91Y, S92H, T93S, D94S, P95L, I96F
B7: G9.1-5 Fab (Fab, V domains shown)
VH: EVQLVESGGGLVQPGGSLRLSCAASGFTIYYSSIHWVRQAPGKGLEWVASISSSYGSTYYADSVKGRFTISADTSKNTAYLQMNSLRAEDTAVYYCARSVSWYPYYYYYGYGSGLDYWGQGTLVTVSS
VL: DIQMTQSPSSLSASVGDRVTITCRASQSVSSAVAWYQQKPGKAPKLLIYSASSLYSGVPSRFSGSRSGTDFTLTISSLQPEDFATYYCQQYYGWFYPVTFGQGTKVEIKR
B8: G9.1-8 Fab (Fab, V domains shown)
VH: EVQLVESGGGLVQPGGSLRLSCAASGFTVSSSSIHWVRQAPGKGLEWVAYIYPYSGYTSYADSVKGRFTISADTSKNTAYLQMNSLRAEDTAVYYCARYSTYSWGGIGKWVWGMDYWGQGTLVTVSS
VL: B7 VL with Y91S, G93Y, W94D, F95S, Y96N, V98I
B9: G9.2-17mut6 Fab (Fab, V domains shown)
VH: B1 VH with W106S
VL: B1 VL

In the first test the target is T1, human Galectin-9 CRD2 (residues 218-355), biotinylated (UniProt O00182 218-355, biotinylated in vitro with BirA (Avitag)). As to the kind of experiment: bead-based binding assay; apparent Kd.
T1 sequence (O00182 218-355): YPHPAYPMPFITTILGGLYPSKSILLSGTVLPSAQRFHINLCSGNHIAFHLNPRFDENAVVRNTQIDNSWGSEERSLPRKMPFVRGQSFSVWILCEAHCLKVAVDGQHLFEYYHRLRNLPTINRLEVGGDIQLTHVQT
B1: the Kd amounted to 0.76 nM.

For B2, the Kd stood at 1380 nM.

Regarding B3, the Kd was 0.71 nM.

For the molecule B4, the Kd is 4170 nM.

Another test deals with human Galectin-9 CRD1 (residues 1-148), biotinylated (UniProt O00182 1-148, biotinylated in vitro with BirA (Avitag)). As to the kind of experiment: bead-based binding assay; apparent Kd; plots and legend state CRD1.
Chain of human Galectin-9 CRD1 (residues 1-148), biotinylated (O00182 1-148): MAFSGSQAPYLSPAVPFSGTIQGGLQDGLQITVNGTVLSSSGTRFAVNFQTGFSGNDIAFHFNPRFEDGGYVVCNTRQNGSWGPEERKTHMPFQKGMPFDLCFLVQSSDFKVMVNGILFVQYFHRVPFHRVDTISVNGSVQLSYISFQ
Take B5: the Kd amounted to 20.4 nM.

As to B6, the Kd came to 29.2 nM.

Consider B7, for which the Kd was determined as 30.4 nM.

Take B8: the Kd is 9.8 nM.

Another test deals with T1, human Galectin-9 CRD2 (residues …). The test can be described thus: SPR. (SPR reads the build-up and loss of mass on a sensor chip optically.)
On to B1, for which the Kd worked out at 0.232 nM.

In turn, B3 returned a Kd of 4.8 nM.

For the next test the target is unchanged. As to the kind of experiment: SPR. The source holds these as a separate data set.
As to B1, the Kd was 0.219 nM.

For the molecule B9, the Kd was determined as 0.154 nM.
